Target: T1, His-CP110 (mouse, UniProt Q7TSH4 1-1004)
T1 construct: Full-length mouse CP110 cloned by RT-PCR into pFastBac-HT A (His-tag vector); also called purified His-CP110; source: insect Sf9 cells, Bac-to-Bac baculovirus expression system, purified
T1 sequence (looked up): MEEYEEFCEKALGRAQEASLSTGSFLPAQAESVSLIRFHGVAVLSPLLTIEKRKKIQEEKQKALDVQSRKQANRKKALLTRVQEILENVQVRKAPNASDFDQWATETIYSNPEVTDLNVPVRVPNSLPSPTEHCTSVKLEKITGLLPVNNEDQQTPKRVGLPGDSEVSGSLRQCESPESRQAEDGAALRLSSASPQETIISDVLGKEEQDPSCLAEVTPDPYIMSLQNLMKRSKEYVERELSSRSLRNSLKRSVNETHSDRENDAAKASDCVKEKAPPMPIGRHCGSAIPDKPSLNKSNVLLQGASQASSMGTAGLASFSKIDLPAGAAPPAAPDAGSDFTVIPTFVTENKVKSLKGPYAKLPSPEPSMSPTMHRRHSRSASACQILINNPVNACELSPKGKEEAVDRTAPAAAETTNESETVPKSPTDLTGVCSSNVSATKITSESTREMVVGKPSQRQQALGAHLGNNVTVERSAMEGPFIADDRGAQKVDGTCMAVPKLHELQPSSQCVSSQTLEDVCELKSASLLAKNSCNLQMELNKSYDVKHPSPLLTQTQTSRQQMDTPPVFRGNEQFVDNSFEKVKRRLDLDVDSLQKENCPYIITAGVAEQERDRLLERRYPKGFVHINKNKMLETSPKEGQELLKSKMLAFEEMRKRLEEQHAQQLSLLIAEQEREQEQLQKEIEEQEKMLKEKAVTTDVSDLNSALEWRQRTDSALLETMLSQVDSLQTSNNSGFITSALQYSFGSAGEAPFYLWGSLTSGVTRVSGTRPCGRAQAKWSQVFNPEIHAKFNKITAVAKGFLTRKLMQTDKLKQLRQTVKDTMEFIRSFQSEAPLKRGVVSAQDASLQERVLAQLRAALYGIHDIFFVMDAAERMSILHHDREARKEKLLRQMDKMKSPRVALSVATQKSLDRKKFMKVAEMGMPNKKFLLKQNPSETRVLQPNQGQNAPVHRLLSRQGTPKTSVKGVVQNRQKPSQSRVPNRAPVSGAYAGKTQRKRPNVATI
Test: pull-down; GST pull-down of two purified proteins, incubated in PBS at 4 °C for 4 h, glutathione-agarose beads 2 h, western blotting
Details: both partners purified

B1: GST-NudCL2 (natural protein, mouse, UniProt Q9CQ48 1-157, looked up)
chain: MSAPFEERSGVVPCGTPWGQWYQTLEEVFIEVQVPPGTRAQDIQCGLQSRHVALAVGGREILKGKLFDSTIADEGTWTLEDRKMVRIVLTKTKRDAANCWTSLLESEYAADPWVQDQMQRKLTLERFQKENPGFDFSGAEISGNYTKGGPDFSNLEK
notes: Full-length mouse NudCL2 amplified from total cDNA by RT-PCR and cloned into pGEX5X-1; also called purified GST-NudCL2; source: Escherichia coli BL21, purified
- binding result: binds

From paper PMC8563757, “NudCL2 is an autophagy receptor that mediates selective autophagic degradation of CP110 at mother centrioles to promote ciliogenesis” (Cell Research, 2021)
